Data on 1 substance can be found in US20050048590A1.

For this test, the target named is Fibronectin from human plasma (human) (UniProt P02751). Kind of test: cell-based or functional assay.
Sequence of Fibronectin from human plasma (human) (P02751 32-2477): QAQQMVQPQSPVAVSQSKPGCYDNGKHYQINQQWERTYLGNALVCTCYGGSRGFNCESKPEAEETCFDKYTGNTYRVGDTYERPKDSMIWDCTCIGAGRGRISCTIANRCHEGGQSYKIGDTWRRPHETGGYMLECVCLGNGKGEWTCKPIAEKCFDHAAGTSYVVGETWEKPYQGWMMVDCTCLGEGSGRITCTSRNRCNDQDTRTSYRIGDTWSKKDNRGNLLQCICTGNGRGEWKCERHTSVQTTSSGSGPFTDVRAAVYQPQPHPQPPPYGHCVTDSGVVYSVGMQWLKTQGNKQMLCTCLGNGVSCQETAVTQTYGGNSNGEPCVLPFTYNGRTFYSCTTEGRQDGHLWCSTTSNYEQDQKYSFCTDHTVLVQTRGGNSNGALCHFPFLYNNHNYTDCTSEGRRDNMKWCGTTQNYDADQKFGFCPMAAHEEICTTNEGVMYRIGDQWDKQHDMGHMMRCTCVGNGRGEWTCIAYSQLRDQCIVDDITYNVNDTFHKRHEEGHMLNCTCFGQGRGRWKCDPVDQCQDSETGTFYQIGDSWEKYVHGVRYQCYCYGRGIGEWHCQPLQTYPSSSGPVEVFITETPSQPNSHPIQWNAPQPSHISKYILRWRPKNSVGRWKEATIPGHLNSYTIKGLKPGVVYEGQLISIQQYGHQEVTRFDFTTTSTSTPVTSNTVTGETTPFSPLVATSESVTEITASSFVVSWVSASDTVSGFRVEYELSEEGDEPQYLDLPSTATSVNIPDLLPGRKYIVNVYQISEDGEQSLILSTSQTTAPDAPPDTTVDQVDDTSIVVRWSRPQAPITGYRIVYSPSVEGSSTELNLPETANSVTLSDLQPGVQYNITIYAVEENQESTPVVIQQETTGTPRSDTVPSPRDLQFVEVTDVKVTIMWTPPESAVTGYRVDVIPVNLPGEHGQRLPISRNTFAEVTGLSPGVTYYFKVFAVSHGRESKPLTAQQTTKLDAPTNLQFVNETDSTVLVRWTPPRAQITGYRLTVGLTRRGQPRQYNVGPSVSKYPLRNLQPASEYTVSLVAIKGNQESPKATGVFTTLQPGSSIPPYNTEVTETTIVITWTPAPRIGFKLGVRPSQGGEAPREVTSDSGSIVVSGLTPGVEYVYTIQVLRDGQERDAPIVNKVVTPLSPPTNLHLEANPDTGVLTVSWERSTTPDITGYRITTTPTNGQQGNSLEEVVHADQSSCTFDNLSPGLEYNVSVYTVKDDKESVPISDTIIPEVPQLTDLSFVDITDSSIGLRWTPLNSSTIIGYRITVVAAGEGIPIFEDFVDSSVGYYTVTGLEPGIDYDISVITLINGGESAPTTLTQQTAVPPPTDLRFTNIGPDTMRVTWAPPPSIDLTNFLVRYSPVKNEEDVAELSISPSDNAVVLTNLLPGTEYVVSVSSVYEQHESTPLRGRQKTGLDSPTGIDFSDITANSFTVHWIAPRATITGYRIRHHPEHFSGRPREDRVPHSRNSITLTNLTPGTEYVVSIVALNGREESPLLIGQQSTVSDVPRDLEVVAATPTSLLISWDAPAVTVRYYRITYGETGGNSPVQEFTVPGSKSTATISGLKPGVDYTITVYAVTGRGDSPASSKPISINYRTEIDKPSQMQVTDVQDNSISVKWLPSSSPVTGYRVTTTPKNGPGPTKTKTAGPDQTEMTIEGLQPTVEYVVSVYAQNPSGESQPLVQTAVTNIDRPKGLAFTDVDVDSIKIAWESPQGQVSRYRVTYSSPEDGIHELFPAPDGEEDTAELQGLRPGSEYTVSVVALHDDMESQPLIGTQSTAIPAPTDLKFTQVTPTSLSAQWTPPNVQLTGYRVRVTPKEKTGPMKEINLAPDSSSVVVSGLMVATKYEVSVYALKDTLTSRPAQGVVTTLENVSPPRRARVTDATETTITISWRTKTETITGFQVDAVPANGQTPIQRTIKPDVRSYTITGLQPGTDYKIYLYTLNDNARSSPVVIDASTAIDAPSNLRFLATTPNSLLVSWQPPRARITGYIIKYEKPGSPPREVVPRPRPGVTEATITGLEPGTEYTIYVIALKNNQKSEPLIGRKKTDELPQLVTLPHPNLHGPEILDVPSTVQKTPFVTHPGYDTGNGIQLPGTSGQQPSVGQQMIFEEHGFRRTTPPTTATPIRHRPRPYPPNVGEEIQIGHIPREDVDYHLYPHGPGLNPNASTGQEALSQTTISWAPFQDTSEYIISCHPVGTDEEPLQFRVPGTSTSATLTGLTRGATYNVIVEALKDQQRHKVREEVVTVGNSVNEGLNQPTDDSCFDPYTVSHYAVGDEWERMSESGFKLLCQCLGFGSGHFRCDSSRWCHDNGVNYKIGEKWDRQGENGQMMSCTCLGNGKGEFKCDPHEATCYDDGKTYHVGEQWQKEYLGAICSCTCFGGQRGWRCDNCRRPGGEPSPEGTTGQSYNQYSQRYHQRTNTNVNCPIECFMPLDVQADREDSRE

Sequence of yeast enolase (Sigma) (P00924 2-437): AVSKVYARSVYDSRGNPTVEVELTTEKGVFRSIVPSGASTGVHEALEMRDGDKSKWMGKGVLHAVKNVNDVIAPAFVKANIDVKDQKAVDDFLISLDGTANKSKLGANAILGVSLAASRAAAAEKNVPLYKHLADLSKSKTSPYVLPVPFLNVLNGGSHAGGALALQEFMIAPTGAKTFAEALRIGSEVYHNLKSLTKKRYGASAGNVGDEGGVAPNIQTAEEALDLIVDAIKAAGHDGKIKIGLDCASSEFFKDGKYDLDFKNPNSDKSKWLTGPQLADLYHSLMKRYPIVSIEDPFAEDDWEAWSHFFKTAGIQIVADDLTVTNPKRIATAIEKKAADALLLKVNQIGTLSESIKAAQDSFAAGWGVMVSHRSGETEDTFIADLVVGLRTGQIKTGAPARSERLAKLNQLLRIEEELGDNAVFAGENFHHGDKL

In turn, “yeast enolase (Sigma) (from UniProt P00924 2-437)” yielded an inhibition of pneumococcal adherence to fibronectin coated wells of 98%.
